This note sets out measurements from publication PMC5374532, “Rational mutagenesis by engineering disulphide bonds improves Kluyveromyces lactis beta-galactosidase for high-temperature industrial applications” (Scientific Reports, 2017).

Assay [1] deals with Kluyveromyces lactis β-galactosidase mutant R116C/T270C (Kluyveromyces lactis) (UniProt P00723). The assay can be described thus: AUC; sedimentation velocity, 0.1 mg/mL enzyme, 50 mM Tris-HCl, 150 mM NaCl, pH 7.4, 48 k rpm, c(s) distribution (SEDFIT); self-association.
For assay [2] the target is unchanged. Put plainly: AUC; sedimentation velocity, 0.2 mg/mL enzyme, 50 mM Tris-HCl, 150 mM NaCl, pH 7.4, 48 k rpm, c(s) distribution (SEDFIT); self-association, shares of monomer, dimer, trimer and tetramer.
For assay [3], the target named is Kluyveromyces lactis β-galactosidase mutant R116C/T270C/G818C (Kluyveromyces lactis) (UniProt P00723). The assay can be described thus: AUC; sedimentation velocity, 0.1 mg/mL enzyme, 50 mM Tris-HCl, 150 mM NaCl, pH 7.4, 48 k rpm, c(s) distribution (SEDFIT); self-association.
The target is the same in assay [4]. Put plainly: AUC; sedimentation velocity, 0.2 mg/mL enzyme, 50 mM Tris-HCl, 150 mM NaCl, pH 7.4, 48 k rpm, c(s) distribution (SEDFIT); self-association, shares of monomer, dimer, trimer and tetramer.

Turning to “Kluyveromyces lactis β-galactosidase mutant R116C/T270C (from UniProt P00723 2-1025) (enzyme)”, the increase in monomeric forms at 0.1 mg/mL against 0.2 mg/mL in assay [1] is 0.8%. In assay [2], this substance came in with a percent of the protein as dimer of 20.9%, a percent of the protein as monomer of 21.9%, a percent of the protein as tetramer of 49.3% and a percent of the protein as trimer of 7.9%.

“Kluyveromyces lactis β-galactosidase mutant R116C/T270C/G818C (from UniProt P00723 2-1025) (enzyme)”: in assay [3], the increase in monomeric forms at 0.1 mg/mL against 0.2 mg/mL worked out at 2.1%. Moreover, in assay [4], the percent of the protein as dimer was determined as 57.2%, the percent of the protein as monomer stood at 7.3%, the percent of the protein as tetramer was 23% and the percent of the protein as trimer is 12.6%.
